# Experiment: soluble on expression in E. coli; label from the status in PepcDB or PDB records
row,Sequence,soluble on expression in E. coli
1,MGSDKIHHHHHHMNILLVDDDRFIIEALREKINWAKLHIDIVYVAYSLTQAQNIIREHPIDLMISDIEMPQGSGLELLSWIRNEKYDIKTIFLTNYADFNYAQKAIELQSFEYYLKPINFEKLEFIIQKAISKIENHNLNGKNDSLLQIEDNFWYDYLRKPQISRIDELENIASKQDFILKQHQYFFLAVLTINLNEEDYSVETPSWTSQLKRELQRISQPSYKLISLFKMESQVDQYVCLFRVDSSKRSDKLAYEIHSQISNNFSKYSNIIYKSCHKISDILFHTKELYTYNEQYVSYWNTITCVPHSFPTSFKTETLSITFLDTLSEYELREKINSLAYNSQIPTFTLQQILLDWTQQIGIYLDQNGISAHKLFQNSTHDFLFQRRFHSIESFQDYFDYYWSHAKKFATNIENQKNSIQRIVEYIDHHYYEDINRSILADVVYLSADHLARIFKKETGETLVKYITDKRINAAKSLLSQTNISISQVSCQVGYDNYSYFTKIFKQRTGLSPGDYRKTYQNKM,not soluble
2,MYTLREPYKGYEVKVTLLPIEDIVIPPIQRDLSETLIKKLMLSIEKVGFVDPILVVEGEEGKYEVINGQHRLKAAELLGIREIPAIILPQETKDYIISLNVEKAPNLKDKAHQAYEIFMKYLKENPEMEEVELENMVEEPYFLTVGFITDRFGEKRFPAYAFEKVLKKVDEFLGLPLEEAERERENRANVLRDVREVMEEKYQELGLTNALHKEAIISKAFQSVYGKRVRKVDDDFYTVFEKIKEAIPRVSFTEEELESF,soluble
3,MTYIAPEESAFGVGFFERLEANAKPMSLTRGPDAWDVLESIKRNVSNILNTRIGGAQSAPHLGLVDFNDATLETLDLSVRIKLAIQQCLERYEPRLTRVLVRADQDSFNPLTLRFHITATINSEALHEKVQFSLLLDQSRKYRVF,not soluble
4,KRQKIHLGDRSQKCSKCGIIFIRRSTLSRRKTPMCEKCRKDSCQEAALNKDEGNESGKKT,soluble
5,RSGKCVGDVIETVDSEEAMGDLKIVLAAIFARKFAGVNGEVTKEYLEGYKMLNIYITNACNLKCKHCFMLSGKKLENELTLEDWMKVLTSFKENGGEFVTFSGGEPLMFKNFPQIISHAHDLGLKSTVLSNGLLWSGKLIHDLALFIDEIQFSLDGVDEETNSMVRGSGHFEKVVDTIVKFANAGVKT,not soluble
6,MSLGSQTDGSPAGGWPALNAVNKHLLHQHVLVKGNRTLLSMNKPGGFDCPSCSWPDPKKPHTFEYCENGAKALAWESTKKRVTPEFFARHTVSELATWSDHDLEKQGRIAEPMRYDAASDKYLPVTWDEAFAEIGEELRQLSDPWKLELYTSGRTSNEAAFLYQLFGRLYGMANFPDCSNMCHETTTVALPESIGVGKGTTTLEDFENADAIFIIGQNPGSNSPRMMSELHAAAKRGASIISFNPLREKALVRFASPQDPRDMLSLHGVEISSQYHQVRIGGDMIALQGVCKAVIEADDVARREHLPRVLDVAFIEEHTHGFEQYADYCRQLPWDLIESHSGLTRQAIEDVAAVYRRSERVICCWGMGVTQHKRGGDAVQQIINLLLLRGNIGKLGAGACPVRGHSNVQGDRTMGIYEKAGEPFLASMSKVFGFEASRRKGHAVAETCEALLRGEVEALISMGGNFFRAIPDIDAICPTVSRLKMTVLVNTKLNRSATVHGQKAFLLPCVARSERDLQNGVAQTITVEDSMSIVHGSTGMLEPASKHLISEVAIIAGIAKATLAPNPNVDWDSYVGDYARIRDKIEEVLPEQFYDFNRRILEPGGFRLPNAASERKWDTESGKANFLFTEGIYDEDDTPPGAAHLQLMTIRSHDQFNTTVYSNDDRYRDIFGDRMVVMLNPQDIERLGLKAGDYIEFQTALDLTTPRRAPGFKVIAYDVPPGCCAAYYPETNGLLPLANRDSRSNTPAAKSIPVNLVRMSPEGAQVALEREGHHHHHH,soluble
7,MASMTGGQQMGRGSMAGVLPAHGTQHGIRLPLRSGLGGAPLGLRLPRETDEEPEEPGKKGSFVEMVDNLRGKSGQGYYVEMTVGSPPQTLNILVDTGSSNFAVGAAPHPFLHRYYQRQLSSTYRDLRKGVYVPYTQGKWEGELGTDLVSIPHGPNVTVRANIAAITESDKFFINGSNWEGILGLAYAEIARPDDSLEPFFDSLVKQTHVPNLFSLQLCGAGFPLNQSEVLASVGGSMIIGGIDHSLYTGSLWYTPIRREWYYEVIIVRVEINGQDLKMDCKEYNYDKSIVDSGTTNLRLPKKVFEAAVKSIKAASSTEKFPDGFWLGEQLVCWQAGTTPWNIFPVISLYLMGEVTNQSFRITILPQQYLRPVEDVATSQDDCYKFAISQSSTGTVMGAVIMEGFYVVFDRARKRIGFAVSACHVHDEFRTAAVEGPFVTLDMEDCGYNIPQTDES,soluble
8,MPYEADDYLSRHFQTSGTDLARKVDELAALAAPGDSPNLALYREMLFTVTRMAQADRNRWDAKIMLQTLREMEHAFSVLEQFKRRRKVTVFGSARTPVEHPVYALARKLGEELARYDLMVITGAGGGIMAAAHEGAGLENSLGFNITLPFEQHANHTVDGSGNLLSFHFFFLRKLFFVKEADALVLCPGGFGTLDEALEVLTLVQTGKSPLVPIVLLDQPGGRYWEHALEFMQEQLLENHYILPADMRLMRLVHSAEDAVKEIAQFYRNFHSSRWLKGTFVIRLNHALNEAALAHLHEHFASLCLSGGFQQQAYSEQEQDEPEFRNLTRLAFVFNGRDQGRLRELLDYINLPENWD,not soluble
9,QVQLQQSGAELVKPGASVRMSCKASGYTFTNYNMYWVKQSPGQGLEWIGIFYPGNGDTSYNQKFKDKATLTADKSSNTAYMQLSSLTSEDSAVYYCARSGGSYRYDGGFDYWGQGTTVTVSS,soluble
10,MGSDKIHHHHHHSNKKTVDPNPVVRDNIIHLSTAIKNVREEMMLSELVDSVSYIPLETNPNCMLGNYQRLTFSPQYIFYSNYCFDWNGQFLFRIGSQGQGACEDIYVHVADIVYLNNHFYGNASKIIEYDDRGKCTGKELSWFTQKTMDTAPVGHLVNQVCFAPAGENLMFYNFPDTVYFINTDYEFVAKRSMMPWGRKGGAPSMSGGDPRFKYTSYYKDTTLFYNFYTDTVFTVTPTSLMPRWVVELDEELRFPTRYLYEDGLLSEAFKCWESGNLENAKMIKLLDHKYMVSGVFETERFVFLSVYECMPFRELRKLPETPPLTAIYNKRTGETFAVKQVVDDLGGMKAFFPSWGAYNEKLLATIWPYKLKEFIEEEQSAGRTVAPQILNLMQRVREDDNPVLIIAHLKK,not soluble
11,MGSDKIHHHHHHMSFMDQIPGGGNYPKLPVECLPNFPIQPSLTFRGRNDSHKLKNFISEIMLNMSMISWPNDASRIVYCRRHLLNPAAQWANDFVQEQGILEITFDTFIQGLYQHFYKPPDINKIFNAITQLSEAKLGIERLNQRFRKIWDRMPPDFMTEKAAIMTYTRLLTKETYNIVRMHKPETLKDAMEEAYQTTALTERFFPGFELDADGDTIIGATTHLQEEYDSDYDSEDNLTQNGYVHTVRTRRSYNKPMSNHRNRRNNNPSREECIKNRLCFYCKKEGHRLNECRARKASSNRS,not soluble
12,SMDMKQQNFCVVELLPSDPEYNTVASKFNQTCSHFRIEKIERIQNPDLWNSYQAKKKTMDAKNGQTMNEKQLFHGTDAGSVPHVNRNGFNRSYAGKNAVAYGKGTYFAVNANYSANDTYSRPDANGRKHVYYVRVLTGIYTHGNHSLIVPPSKNPQNPTDLYDTVTDNVHHPSLFVAFYDYQAYPEYLITFRK,soluble
13,MPEALRTQIDELNSWIYDKVNNGVYKAGFATTQSAYDESASTVFAALSDLETILAKQRYLTGEQLTEADLRLWTTLIRFDPVYHTHFKCDKYRLSDYPNLFGFLRDIYQMPGIAETVDMAHIRHHYYRSHGTINPHGVISLGPEQDLNQPHQRDKKFVDLYLEHHHHHH,soluble
14,MSLNSLKHPKVRDTRDMWDIREELTSEQKKQEKLLAEINKYDKFVNSYSQTKEMTKETALNNTLQSLKKTAGMTDITGSGIVITISPLFSESLTGEPIENPPPDLLKKLINELNSYGAEHISINERRVVNHTVIRDINGTTKIDGYALDDYPLTVKVLAKDPDMLHSRVKGSGLEDLFASENLALKAGKSESKLTLKAYDRPLDVQQLKLLKDEGHHHHHH,soluble
15,MVNQLIEPYGGTLVNLIDPEKREALKHEALSLPSLDLDWQQQCELEMLMTGAYSPLTGFMTRAQCARVESAQQLDDGSFWPSPITLTSRDRALADRRPGERLALRDGEGYMLAILTLSDVWKDGERWHLAGEVEGAALPPHPDFVSLRATPAELRALFVRRGWRRIIAWQARQPMHRAQYEFCLKSAIENEANLLLHPQVGGDITEAPAYFGLVRSFLAIRDRFPAATTQLSLLPAPPPEASGRALLLRAIVARNFGCSLLIAGGEHQPDGGDCRRGEDLTQNRVDPSVAERAEKIGVRLIAYPRMVYVEDRAEHLPEAEAPQGARLLTLSGEEFQRRMRAGLKIPEWYSFPEVLAELHRQTPPRERQGFTVFFTGLSGAGKSTLARALAARLMEMGGRCVTLLDGDIVRRHLSSELGFSKAHRDVNVRRIGFVASEITKNRGIAICAPIAPYRQTRRDVRAMIEAVGGFVEIHVATPIETCESRDRKGLYAKARAGLIPEFTGVSDPYEVPETPELAIDTTGLAIDEAVQQILLKLEHEGYLRLEHHHHHH,soluble
16,MSLKFMSRFTFKQFHINQNSCAMKVGTDGILLGAWADVKHCKNILDMGCGTGLLALMLAQRTEENCQIQAVELDPIAAKQAQENINNSVWKNRIQLTQVDIQHFLQTTEQTFDLIVANPPYFEQGIACKNEERELARYTKQSHLNWLEWAATRLSENGRISFVLPYEAGKTLTKSTALFCIKQTNVITKIGKTPQRMLLTFAKQPEVLMQDQLVIYDADNQYTEAFIELTKDFYLKEGHHHHHH,soluble
17,SLNSSIDVDSLMRSVSRVFKFIDMPTEGKPTKSTKPYKNGQLSKVMIIENSHVKKDDIWPSGGQMTVKDLTAKYTEGGNAILENISFSISPGQRVGLLGRTGSGKSTLLSAFLRLLNTEGEIQIDGVSWDSITLQQWRKAFGVIPQKVFIFSGTFRKNLDPYEQWSDQEIWKVADEVGLRSVIEQFPGKLDFVLVDGGCVLSHGHKQLMCLARSVLSKAKILLLDEPSAHLDPVTYQIIRRTLKQAFADCTVILCEHRIEAMLECQQFLVIEENKVRQYDSIQKLLNERSLFRQAISPSDRVKLFPHRNSSKCKSKPQIAALKEETEEEVQDTRL,soluble
18,EEHLSVMYERLRQELPKLFLQSHDYSLYSLDVEFINEILNIRTKGRTWYILSLTLCRFLAWNYFAHLRLEVLQLTRHPENWTLQARWRLVGLPVHLLFLRFYKRDKDEHYRTYDAYSTFYLNSSGLI,soluble
19,MFRVQTLNQIAEKGLQVFTEERYEVGDRINHPDGILLRSYSLHQEEFSKDLKAIARAGAGVNNIPVERCTEKGIVVFNTPGANANAVKELIIASLIMSSRNIINGVSWTKNLEGEEVPQLVESGKKQFVGSEIAGKRLGVIGLGAIGALVANDALALGMDVIGYDPYISVETAWRLSTHVQRAFSLDEIFATCDYITLHIPLTNQTKGIIGEHAVEKMKRGMRLFNFSRGELVDEKVLQKALEEDIITHYVTDFPNENVIKMKNVTATPHLGASTSESEENCAVMAARQLREYLETGNIRNSVNYPNVELPYIGKKRITIMHQNVPNMVGQITGCLAEHHINIADMTNRSKHSWAYTMIDIDNGIDDIIKENIVENISKITGVVAVRMIV,not soluble
20,MTTQITAEDVEAYLGTRENSPTMSDTVDAAVDLVESWKSTPQEKWPPRWRRGCIMLAARMDRRRNSPAGVDTMGEIGVVYVSRKDPDIAQLLEIGDFSKPIAR,not soluble
21,GVTGISTGFIDLNKKTAGLQPSDLIIVAARPSMGKTTFAMNLCENASLHDIEDHNDLDENGNPRKKPAKPVLIFSLEMPADQIMMRMLASLSRVNQTKIRTGQIHDDEEWAKISSTVAILQERKNIFIDDSAGLTPTELRSRARRIYRENGGLSLIMVDYLQLMRVPNFSDNRTLEIAEISRSLKALAKELEVPVVALSQLNRSLEQRQDKRPVNSDL,not soluble
